Test results as given in PMC5095700.

Test system: N[C@@H]1[C@@H](O)[C@H](O)[C@@H](CO)O[C@H]1O
Assay: steady-state kinetics of purified variant
Type: biochemical, Clostridium acetobutylicum
Details: acetyl CoA

Row | Substance | Km | kcat
1 | Glucosamine/glucosaminide N-acetyltransferase (GlmA) (Clostridium acetobutylicum ATCC 824; Y297F) | 7.1 ± 0.5 mM | 1.3 ± 0.06 s⁻¹
2 | Glucosamine/glucosaminide N-acetyltransferase (GlmA) (Clostridium acetobutylicum ATCC 824; D287N) | 11.8 ± 0.5 mM | 1.05 ± 0.03 s⁻¹
